Source: article PMC3373496, “An Evolutionarily Conserved Enhancer Regulates Bmp4 Expression in Developing Incisor and Limb Bud”

B1: WTMsxBSCONS3 (dsDNA)
DNA 1: GACCCTATGTAATTGCATTCCTGAA
DNA 2: TTCAGGAATGCAATTACATAGGGTC
B2: WTPitxBSCONS3 (dsDNA)
DNA 1: AGTTCCCTACATAATCCTTACCGTG
DNA 2: CACGGTAAGGATTATGTAGGGAACT
B3: MutPitxBSCONS3 (dsDNA)
DNA 1: AGTTCCCTACAACGCATTTACCGTG
DNA 2: CACGGTAAATGCGTTGTAGGGAACT
B4: MutMsxBSCONS3 (dsDNA)
DNA 1: GACCCTATCCGGCCTCATTCCTGAA
DNA 2: TTCAGGAATGAGGCCGGATAGGGTC
B5: Bicoid (dsDNA)
DNA 1: TCATGCCTGTAATCCCAGCACTCAG
DNA 2: CTGAGTGCTGGGATTACAGGCATGA

Assays:
GST-Msx2 = GST-Msx2 (UniProt Q03358 1-267); assay: EMSA; 1X phosphate buffer, 10% glycerol, 0.3 mg/ul BSA, 0.1 ug/ul DNaseI-digested poly[dG-dC], 20 ul, on ice 10 min + 20 min with probe; 6% native PAGE, 1x TBE, 4 C; conditions: protein: recombinant; tags: N-terminal GST (pGEX3X); label: 32P 5' end (PNK) when probe; blunt
GST-Pitx1 = GST-Pitx1 (UniProt P70314 1-315); assay: EMSA; 1X phosphate buffer, 10% glycerol, 0.1 ug/ul DNaseI-digested poly[dG-dC], 20 ul, on ice 10 min + 20 min with probe; 6% native PAGE, 1x TBE, 4 C; conditions: protein: recombinant; tags: N-terminal GST (pGEX3X); label: 32P 5' end (PNK) when probe; blunt

Sequence of GST-Msx2 (Q03358 whole entry): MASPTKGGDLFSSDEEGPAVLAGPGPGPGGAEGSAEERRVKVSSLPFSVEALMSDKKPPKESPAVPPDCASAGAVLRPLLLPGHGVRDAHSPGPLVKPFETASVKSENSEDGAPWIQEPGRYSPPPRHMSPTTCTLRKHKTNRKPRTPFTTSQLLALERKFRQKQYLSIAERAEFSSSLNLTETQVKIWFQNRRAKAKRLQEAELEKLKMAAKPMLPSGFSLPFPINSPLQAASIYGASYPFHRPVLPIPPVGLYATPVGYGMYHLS

| Binder | binding result (GST-Msx2) | binding result (GST-Pitx1) |
| --- | --- | --- |
| B1 | binds | – |
| B2 | – | binds |
| B3 | – | no binding |
| B4 | no binding | – |
| B5 | – | binds |
